Laboratory results published in patent US20040191826A1.

Columns and labels:
DPP8/V5/His (human) = DPP8/V5/His (human) (UniProt Q6V1X1); test: cell-based or functional assay
DPPIV/V5/His (human) = DPPIV/V5/His (human) (UniProt P27487); test: cell-based or functional assay
Sequence of DPPIV/V5/His (human) (P27487 whole entry, form in doubt): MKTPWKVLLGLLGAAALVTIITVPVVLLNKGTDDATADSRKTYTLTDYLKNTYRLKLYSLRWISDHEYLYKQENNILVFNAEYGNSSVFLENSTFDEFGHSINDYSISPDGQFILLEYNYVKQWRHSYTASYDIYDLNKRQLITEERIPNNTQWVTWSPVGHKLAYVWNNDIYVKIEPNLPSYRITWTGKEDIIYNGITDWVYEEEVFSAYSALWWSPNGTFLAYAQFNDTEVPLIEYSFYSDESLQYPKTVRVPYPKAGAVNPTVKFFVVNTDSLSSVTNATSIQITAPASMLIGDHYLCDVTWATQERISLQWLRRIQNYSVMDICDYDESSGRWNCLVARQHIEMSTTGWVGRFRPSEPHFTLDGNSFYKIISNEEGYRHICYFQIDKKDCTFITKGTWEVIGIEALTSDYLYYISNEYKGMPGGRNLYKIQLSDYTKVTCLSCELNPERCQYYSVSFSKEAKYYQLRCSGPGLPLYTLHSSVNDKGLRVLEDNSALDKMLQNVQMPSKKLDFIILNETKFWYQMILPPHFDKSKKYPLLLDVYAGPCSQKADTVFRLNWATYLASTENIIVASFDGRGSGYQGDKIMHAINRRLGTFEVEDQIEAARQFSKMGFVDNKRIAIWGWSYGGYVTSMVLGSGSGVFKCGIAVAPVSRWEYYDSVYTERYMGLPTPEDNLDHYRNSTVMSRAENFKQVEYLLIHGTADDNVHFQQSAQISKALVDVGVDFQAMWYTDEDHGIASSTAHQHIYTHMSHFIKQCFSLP

Sequence of DPP8/V5/His (human) (Q6V1X1 17-898): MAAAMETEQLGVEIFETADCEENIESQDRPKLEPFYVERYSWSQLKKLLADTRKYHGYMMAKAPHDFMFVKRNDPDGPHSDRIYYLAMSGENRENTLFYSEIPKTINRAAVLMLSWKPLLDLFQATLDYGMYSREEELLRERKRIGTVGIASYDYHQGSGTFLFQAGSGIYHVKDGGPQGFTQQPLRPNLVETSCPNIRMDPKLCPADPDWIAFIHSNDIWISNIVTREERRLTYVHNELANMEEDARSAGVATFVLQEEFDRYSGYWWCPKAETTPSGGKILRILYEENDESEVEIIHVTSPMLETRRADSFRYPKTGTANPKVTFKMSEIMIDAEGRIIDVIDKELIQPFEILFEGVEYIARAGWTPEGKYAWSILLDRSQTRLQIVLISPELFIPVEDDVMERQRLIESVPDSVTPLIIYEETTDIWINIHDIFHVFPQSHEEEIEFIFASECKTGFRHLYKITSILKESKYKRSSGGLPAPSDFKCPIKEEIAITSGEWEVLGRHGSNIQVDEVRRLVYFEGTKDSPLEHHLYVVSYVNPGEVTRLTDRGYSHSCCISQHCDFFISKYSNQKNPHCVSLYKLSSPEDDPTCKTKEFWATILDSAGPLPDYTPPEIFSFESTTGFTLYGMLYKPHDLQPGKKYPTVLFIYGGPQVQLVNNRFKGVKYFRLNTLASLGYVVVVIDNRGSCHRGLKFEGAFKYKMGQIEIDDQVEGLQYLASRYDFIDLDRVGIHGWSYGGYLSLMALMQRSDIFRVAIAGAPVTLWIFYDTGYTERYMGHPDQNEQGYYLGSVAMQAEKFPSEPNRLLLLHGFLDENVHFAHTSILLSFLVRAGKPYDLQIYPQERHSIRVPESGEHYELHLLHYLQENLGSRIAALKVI

Residual activity (% of control), H-Ala-Pro-pNA hydrolysis, peptide at 10 mM (DPP8/V5/His (human)): 51 % of control | Residual activity (% of control), H-Gly-Pro-pNA hydrolysis, peptide at 10 mM (DPPIV/V5/His (human)): 67 % of control
Substance: Ala-Pro-Gly (peptide)
